Assay results from article PMC6847465 (Nucleic Acids Research, 2019).
Ends that are not written are not given here. * marks the point of attachment. Biotin = O=C1N[C@H]2[C@H](CS[C@H]2CCCCC(=O)*)N1

Target: GST–BRCA1–BRCT (UniProt P38398 1582-1863)
Assay: pull-down

GST–BRCA1–BRCT, sequence (P38398 1582-1863): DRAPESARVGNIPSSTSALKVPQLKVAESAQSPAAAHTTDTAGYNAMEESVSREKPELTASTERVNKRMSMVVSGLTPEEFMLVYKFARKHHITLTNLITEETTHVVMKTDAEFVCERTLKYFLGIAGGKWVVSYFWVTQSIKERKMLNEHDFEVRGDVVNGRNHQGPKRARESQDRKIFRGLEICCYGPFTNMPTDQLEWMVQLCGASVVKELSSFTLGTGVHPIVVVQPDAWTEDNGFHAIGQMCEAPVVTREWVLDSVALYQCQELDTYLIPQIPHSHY

binding result: binds
Binder: Biotin-KHDAIMDGASPDYVLV [biotinylated CSB peptide without S1276 phosphorylation]
